Data from patent US20140154255A1 (AbbVie / Abbott, published 2014).

Columns and labels:
[1] = molecular target: T1, human VEGF-A residues 27-191 of Accession #AAV38412 (human, UniProt P15692 27-191); assay: SS DLL4-VEGF DVD-Ig format; BIAcore by paragraph 262
T1 construct: range 27-191
Protocol: (§1) The binding kinetics and affinity of the antibodies for VEGF (human VEGF-A residues 27-191 of Accession #AAV38412) was determined by using a BIAcore T200 surface plasmon resonance system (BIAcore, GE Healthcare, Piscataway, N.J.). Coupling running buffer was HBS-EP+ running buffer (10 mM HEPES, 150 mM sodium chloride, 3 mM EDTA 0.05% P-20, pH 7.4); assay running buffer was HBS-EP+ with 300 mM sodium chloride and 0.1 mg/mL BSA (Sigma A7906). Polyclonal goat anti-human Fc (Thermo Scientific prod#31125) was first immobilized to the biosensor surface in 10 mM sodium acetate, pH 4.5 using standard BIAcore amine coupling reagents (N-ethyl-N′-dimethylamino-propylcarbodiimide, EDC; N-hydroxysuccinimide, NHS; and ethanolamine HCl, pH 8.5). For binding kinetics assay a series of cycles were performed, each cycle consisted of 1) mAb capture, 2) Ag or buffer injection, 3) dissociation phase and 4) regeneration. Briefly, anti-VEGF antibodies were captured on parallel surfaces at a low flow rate of 10 μL/min. Capture levels were kept low to minimize avidity due to the dimeric nature of VEGF. No capture of the antibody was made on the reference surface to serve for primary referencing and as a negative control. Subsequently, VEGF or buffer only was injected to all flow cells at a flow rate of 80 μL/min for three minutes to monitor association followed by a 20-minute flow of assay rinning buffer at a flow rate of 80 μL/min to monitor dissociation. […] At the end of each cycle the surface was regenerated with 10 mM glycine, pH 1.5 at a flow rate of 60 μL/min in pulses of 60 and 10 sec. Binding data were fit to the 1:1 Langmuir model with mass transport term included using Biacore T200 Evaluation Software to determine the binding constants.

[2] = molecular target: T1, human VEGF-A residues 27-191 of …; assay: BIAcore SPR, KD WT/KD mutant [continued]
Protocol: as §1

[3] = molecular target: T1, human VEGF-A residues 27-191 of …; assay: BIAcore SPR [continued]
Protocol: as §1

T1 sequence (P15692 other isoform, or with tags, fused parts or gaps limits assumed): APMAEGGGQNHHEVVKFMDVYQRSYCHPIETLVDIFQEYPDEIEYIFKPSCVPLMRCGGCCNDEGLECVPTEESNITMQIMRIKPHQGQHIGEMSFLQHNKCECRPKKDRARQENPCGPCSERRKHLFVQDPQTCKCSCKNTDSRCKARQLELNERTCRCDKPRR

Binder	Affinity relative to WT [1]	affinity improvement [2]	Kd [3]	koff [3]	kon [3]
E 56 T (bispecific antibody, also called SS DLL4-VEGF DVD-Ig variant E56T) VH: EVQLVESGGGLVQPGGSLRLSCAASGFTFSNFPMAWVRQAPGKGLEWVATISSSDGTTYYRDSVKGRFTISRDNAKNSLYLQMNSLRAEDTAVYYCARGYYNSPFAYWGQGTLVTVSSASTKGPEVQLVESGGGLVQPGGSLRLSCAASGYTFTNYGMNWVRQAPGKGLEWVGWINTYTGTPTYAADFKRRFTFSLDTSKSTAYLQMNSLRAEDTAVYYCAKYPHYYGSSHWYFDVWGQGTLVTVSS VL: DIQMTQSPSSLSASVGDRVTITCRASEDIYSNLAWYQQKPGKAPKLLIYDTNNLADGVPSRFSGSGSGTDFTLTISSLQPEDFATYYCQQYNNYPPTFGQGTKLEIKRTVAAPDIQMTQSPSSLSASVGDRVTITCSASQDISNYLNWYQQKPGKAPKVLIYFTSSLHSGVPSRFSGSGSGTDFTLTISSLQPEDFATYYCQQYSTVPWTFGQGTKVEIK	0.8 fold				
H97 A (SS DLL4-VEGF DVD-Ig) (bispecific antibody, also called SS DLL4-VEGF DVD-Ig variant H97A) VH: EVQLVESGGGLVQPGGSLRLSCAASGFTFSNFPMAWVRQAPGKGLEWVATISSSDGTTYYRDSVKGRFTISRDNAKNSLYLQMNSLRAEDTAVYYCARGYYNSPFAYWGQGTLVTVSSASTKGPEVQLVESGGGLVQPGGSLRLSCAASGYTFTNYGMNWVRQAPGKGLEWVGWINTYTGEPTYAADFKRRFTFSLDTSKSTAYLQMNSLRAEDTAVYYCAKYPAYYGSSHWYFDVWGQGTLVTVSS VL: DIQMTQSPSSLSASVGDRVTITCRASEDIYSNLAWYQQKPGKAPKLLIYDTNNLADGVPSRFSGSGSGTDFTLTISSLQPEDFATYYCQQYNNYPPTFGQGTKLEIKRTVAAPDIQMTQSPSSLSASVGDRVTITCSASQDISNYLNWYQQKPGKAPKVLIYFTSSLHSGVPSRFSGSGSGTDFTLTISSLQPEDFATYYCQQYSTVPWTFGQGTKVEIK		1 fold	5.03 nM	0.000269 s⁻¹	53600 M⁻¹ s⁻¹
T 28 W (bispecific antibody, also called SS DLL4-VEGF DVD-Ig variant T28W) VH: EVQLVESGGGLVQPGGSLRLSCAASGFTFSNFPMAWVRQAPGKGLEWVATISSSDGTTYYRDSVKGRFTISRDNAKNSLYLQMNSLRAEDTAVYYCARGYYNSPFAYWGQGTLVTVSSASTKGPEVQLVESGGGLVQPGGSLRLSCAASGYWFTNYGMNWVRQAPGKGLEWVGWINTYTGEPTYAADFKRRFTFSLDTSKSTAYLQMNSLRAEDTAVYYCAKYPHYYGSSHWYFDVWGQGTLVTVSS VL: DIQMTQSPSSLSASVGDRVTITCRASEDIYSNLAWYQQKPGKAPKLLIYDTNNLADGVPSRFSGSGSGTDFTLTISSLQPEDFATYYCQQYNNYPPTFGQGTKLEIKRTVAAPDIQMTQSPSSLSASVGDRVTITCSASQDISNYLNWYQQKPGKAPKVLIYFTSSLHSGVPSRFSGSGSGTDFTLTISSLQPEDFATYYCQQYSTVPWTFGQGTKVEIK	0.6 fold				
G 55 Q (bispecific antibody, also called SS DLL4-VEGF DVD-Ig variant G55Q) VH: EVQLVESGGGLVQPGGSLRLSCAASGFTFSNFPMAWVRQAPGKGLEWVATISSSDGTTYYRDSVKGRFTISRDNAKNSLYLQMNSLRAEDTAVYYCARGYYNSPFAYWGQGTLVTVSSASTKGPEVQLVESGGGLVQPGGSLRLSCAASGYTFTNYGMNWVRQAPGKGLEWVGWINTYTQEPTYAADFKRRFTFSLDTSKSTAYLQMNSLRAEDTAVYYCAKYPHYYGSSHWYFDVWGQGTLVTVSS VL: DIQMTQSPSSLSASVGDRVTITCRASEDIYSNLAWYQQKPGKAPKLLIYDTNNLADGVPSRFSGSGSGTDFTLTISSLQPEDFATYYCQQYNNYPPTFGQGTKLEIKRTVAAPDIQMTQSPSSLSASVGDRVTITCSASQDISNYLNWYQQKPGKAPKVLIYFTSSLHSGVPSRFSGSGSGTDFTLTISSLQPEDFATYYCQQYSTVPWTFGQGTKVEIK	0.9 fold				
N 31 G (bispecific antibody, also called SS DLL4-VEGF DVD-Ig variant N31G) VH: EVQLVESGGGLVQPGGSLRLSCAASGFTFSNFPMAWVRQAPGKGLEWVATISSSDGTTYYRDSVKGRFTISRDNAKNSLYLQMNSLRAEDTAVYYCARGYYNSPFAYWGQGTLVTVSSASTKGPEVQLVESGGGLVQPGGSLRLSCAASGYTFTGYGMNWVRQAPGKGLEWVGWINTYTGEPTYAADFKRRFTFSLDTSKSTAYLQMNSLRAEDTAVYYCAKYPHYYGSSHWYFDVWGQGTLVTVSS VL: DIQMTQSPSSLSASVGDRVTITCRASEDIYSNLAWYQQKPGKAPKLLIYDTNNLADGVPSRFSGSGSGTDFTLTISSLQPEDFATYYCQQYNNYPPTFGQGTKLEIKRTVAAPDIQMTQSPSSLSASVGDRVTITCSASQDISNYLNWYQQKPGKAPKVLIYFTSSLHSGVPSRFSGSGSGTDFTLTISSLQPEDFATYYCQQYSTVPWTFGQGTKVEIK	1.1 fold				

Next, values leading:

Affinity relative to WT [1]	affinity improvement [2]	Kd [3]	koff [3]	kon [3]	Binder
0.6 fold					E 56 W (bispecific antibody, also called SS DLL4-VEGF DVD-Ig variant E56W) VH: EVQLVESGGGLVQPGGSLRLSCAASGFTFSNFPMAWVRQAPGKGLEWVATISSSDGTTYYRDSVKGRFTISRDNAKNSLYLQMNSLRAEDTAVYYCARGYYNSPFAYWGQGTLVTVSSASTKGPEVQLVESGGGLVQPGGSLRLSCAASGYTFTNYGMNWVRQAPGKGLEWVGWINTYTGWPTYAADFKRRFTFSLDTSKSTAYLQMNSLRAEDTAVYYCAKYPHYYGSSHWYFDVWGQGTLVTVSS VL: DIQMTQSPSSLSASVGDRVTITCRASEDIYSNLAWYQQKPGKAPKLLIYDTNNLADGVPSRFSGSGSGTDFTLTISSLQPEDFATYYCQQYNNYPPTFGQGTKLEIKRTVAAPDIQMTQSPSSLSASVGDRVTITCSASQDISNYLNWYQQKPGKAPKVLIYFTSSLHSGVPSRFSGSGSGTDFTLTISSLQPEDFATYYCQQYSTVPWTFGQGTKVEIK
0.4 fold					T 30 F (bispecific antibody, also called SS DLL4-VEGF DVD-Ig variant T30F) VH: EVQLVESGGGLVQPGGSLRLSCAASGFTFSNFPMAWVRQAPGKGLEWVATISSSDGTTYYRDSVKGRFTISRDNAKNSLYLQMNSLRAEDTAVYYCARGYYNSPFAYWGQGTLVTVSSASTKGPEVQLVESGGGLVQPGGSLRLSCAASGYTFFNYGMNWVRQAPGKGLEWVGWINTYTGEPTYAADFKRRFTFSLDTSKSTAYLQMNSLRAEDTAVYYCAKYPHYYGSSHWYFDVWGQGTLVTVSS VL: DIQMTQSPSSLSASVGDRVTITCRASEDIYSNLAWYQQKPGKAPKLLIYDTNNLADGVPSRFSGSGSGTDFTLTISSLQPEDFATYYCQQYNNYPPTFGQGTKLEIKRTVAAPDIQMTQSPSSLSASVGDRVTITCSASQDISNYLNWYQQKPGKAPKVLIYFTSSLHSGVPSRFSGSGSGTDFTLTISSLQPEDFATYYCQQYSTVPWTFGQGTKVEIK
	0.9 fold	13 nM	6.92e-05 s⁻¹	5500 M⁻¹ s⁻¹	N31 W (SS DLL4-VEGF DVD-Ig) (bispecific antibody, also called SS DLL4-VEGF DVD-Ig variant N31W) VH: EVQLVESGGGLVQPGGSLRLSCAASGFTFSNFPMAWVRQAPGKGLEWVATISSSDGTTYYRDSVKGRFTISRDNAKNSLYLQMNSLRAEDTAVYYCARGYYNSPFAYWGQGTLVTVSSASTKGPEVQLVESGGGLVQPGGSLRLSCAASGYTFTWYGMNWVRQAPGKGLEWVGWINTYTGEPTYAADFKRRFTFSLDTSKSTAYLQMNSLRAEDTAVYYCAKYPHYYGSSHWYFDVWGQGTLVTVSS VL: DIQMTQSPSSLSASVGDRVTITCRASEDIYSNLAWYQQKPGKAPKLLIYDTNNLADGVPSRFSGSGSGTDFTLTISSLQPEDFATYYCQQYNNYPPTFGQGTKLEIKRTVAAPDIQMTQSPSSLSASVGDRVTITCSASQDISNYLNWYQQKPGKAPKVLIYFTSSLHSGVPSRFSGSGSGTDFTLTISSLQPEDFATYYCQQYSTVPWTFGQGTKVEIK
0.8 fold					T 28 D (bispecific antibody, also called SS DLL4-VEGF DVD-Ig variant T28D) VH: EVQLVESGGGLVQPGGSLRLSCAASGFTFSNFPMAWVRQAPGKGLEWVATISSSDGTTYYRDSVKGRFTISRDNAKNSLYLQMNSLRAEDTAVYYCARGYYNSPFAYWGQGTLVTVSSASTKGPEVQLVESGGGLVQPGGSLRLSCAASGYDFTNYGMNWVRQAPGKGLEWVGWINTYTGEPTYAADFKRRFTFSLDTSKSTAYLQMNSLRAEDTAVYYCAKYPHYYGSSHWYFDVWGQGTLVTVSS VL: DIQMTQSPSSLSASVGDRVTITCRASEDIYSNLAWYQQKPGKAPKLLIYDTNNLADGVPSRFSGSGSGTDFTLTISSLQPEDFATYYCQQYNNYPPTFGQGTKLEIKRTVAAPDIQMTQSPSSLSASVGDRVTITCSASQDISNYLNWYQQKPGKAPKVLIYFTSSLHSGVPSRFSGSGSGTDFTLTISSLQPEDFATYYCQQYSTVPWTFGQGTKVEIK
	0.8 fold	11 nM	8.15e-05 s⁻¹	7210 M⁻¹ s⁻¹	H97 F (SS DLL4-VEGF DVD-Ig) (bispecific antibody, also called SS DLL4-VEGF DVD-Ig variant H97F) VH: EVQLVESGGGLVQPGGSLRLSCAASGFTFSNFPMAWVRQAPGKGLEWVATISSSDGTTYYRDSVKGRFTISRDNAKNSLYLQMNSLRAEDTAVYYCARGYYNSPFAYWGQGTLVTVSSASTKGPEVQLVESGGGLVQPGGSLRLSCAASGYTFTNYGMNWVRQAPGKGLEWVGWINTYTGEPTYAADFKRRFTFSLDTSKSTAYLQMNSLRAEDTAVYYCAKYPFYYGSSHWYFDVWGQGTLVTVSS VL: DIQMTQSPSSLSASVGDRVTITCRASEDIYSNLAWYQQKPGKAPKLLIYDTNNLADGVPSRFSGSGSGTDFTLTISSLQPEDFATYYCQQYNNYPPTFGQGTKLEIKRTVAAPDIQMTQSPSSLSASVGDRVTITCSASQDISNYLNWYQQKPGKAPKVLIYFTSSLHSGVPSRFSGSGSGTDFTLTISSLQPEDFATYYCQQYSTVPWTFGQGTKVEIK
